Laboratory results published in patent US20230406936A1 (IMMUNOURCHIN, published 2023).
Substitutions are numbered along the chain they refer to.

Assays:
[1] = target: T1, pan IgC segment of human PD-L1, expressed on MC38 / CHO-K1 cells (human, UniProt Q9NZQ7 132-238); test: flow cytometry on cells expressing pan IgC
T1 construct: also called PD-L1-pan-IgC; hPD-L1 pan-IgC segment
Protocol: (§1) MC38/CHO-K1 cells expressing either PD-L1 or pan IgC were used as positive detection cells. MC38/CHO-K1 wild type cells and PD-L2-expressed MC38/CHO-K1 cells were used as negative control. About 1×10⁵ negative and positive cells were stained with either sera from immunized mice (1:100, 1:1000, 1:10000 dilutions) or culture supernatant (50 μl) from hybridoma, or mouse monoclonal antibody (concentrations as indicated in the figures), or other humanized antibodies (concentrations as indicated in the figures), and incubated at 4° C. for 15 min. After washed with PBS, the cells were stained with a PE conjugated goat anti mouse IgG (BD biosciences) and incubated in dark place at 4° C. for 15 min. After washed with PBS, the stained cells were analyzed by a flow cytometry (NovoCyte, Acebio, Hangzhou).
(§2) MC38 cells expressing either hPD-L1 or pan-IgC were used as positive detection cells, whereas, both hPD-L2 expressed and parental MC38 cells were used as negative detection cells.
(§3) 50 μl/well of hybridoma culture supernatant or 100 ng/well mouse monoclonal antibody were mixed with 1×10 5 of either positive or negative detection cells at 4° C. for 15 min. After washed with PBS, the cells were stained with a PE conjugated goat anti mouse antibody (BD biosciences) at 4° C. for 15 min in dark place.

[2] = target: T2, native form of secretory sPD-L1-3, in culture supernatant of transfected MC38 cells (human, UniProt Q9NZQ7 19-178); test: indirect (sandwich) ELISA: antibody coated, MC38 culture supernatant with sPD-L1-3
T2 construct: Untagged, secreted by MC38 cells; also called sPD-L1-3/12
T2 sequence (Q9NZQ7 19-178): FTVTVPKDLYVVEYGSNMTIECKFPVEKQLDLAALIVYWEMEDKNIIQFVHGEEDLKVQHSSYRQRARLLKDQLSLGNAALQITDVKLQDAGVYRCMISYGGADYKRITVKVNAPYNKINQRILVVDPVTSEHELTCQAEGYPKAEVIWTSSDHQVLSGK

[3] = target: T3, human PD-L1 (membrane-bound type), expressed on MC38 / CHO-K1 cells (human, UniProt Q9NZQ7 19-290); test: flow cytometry on MC38 cells expressing hPD-L1
T3 construct: Full-length gene transfected into MC38 and CHO-K1 cells; also called hPD-L1
T3 sequence (Q9NZQ7 19-290): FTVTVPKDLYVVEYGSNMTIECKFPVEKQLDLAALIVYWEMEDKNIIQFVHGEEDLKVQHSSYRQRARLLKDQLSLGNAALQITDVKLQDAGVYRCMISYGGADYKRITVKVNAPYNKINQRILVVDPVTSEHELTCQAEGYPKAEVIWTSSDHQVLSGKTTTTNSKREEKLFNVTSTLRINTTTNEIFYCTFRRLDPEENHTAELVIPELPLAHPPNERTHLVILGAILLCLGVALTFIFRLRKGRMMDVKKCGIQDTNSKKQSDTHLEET
Protocol: as §1, §2, §3

[4] = target: T4, recombinant PD-L1-3-HIS (secretory splice variant PD-L1-3 with HIS tag, from HEK293 cells) (human, UniProt Q9NZQ7 19-178); test: direct ELISA, 50 ng/well rPD-L1-3-HIS coated
T4 construct: The range 19-178 comes from the background paragraph; also called rPD-L1-3-HIS; sPD-L1-3-HIS; not shown: HIS tag
T4 sequence (Q9NZQ7 19-178, change not shown): as the sequence (Q9NZQ7 19-178) above

[5] = target: T1, pan IgC segment of human PD-L1, …; test: flow cytometry on cells with pan-IgC
[6] = target: T5, human PD-L2 (membrane-bound type), expressed on CHO-K1 cells (human, UniProt Q9BQ51 20-273); test: flow cytometry on cells with membrane-bound human PD-L2
T5 construct: whole, on cells; also called hPD-L2
T5 sequence (looked up): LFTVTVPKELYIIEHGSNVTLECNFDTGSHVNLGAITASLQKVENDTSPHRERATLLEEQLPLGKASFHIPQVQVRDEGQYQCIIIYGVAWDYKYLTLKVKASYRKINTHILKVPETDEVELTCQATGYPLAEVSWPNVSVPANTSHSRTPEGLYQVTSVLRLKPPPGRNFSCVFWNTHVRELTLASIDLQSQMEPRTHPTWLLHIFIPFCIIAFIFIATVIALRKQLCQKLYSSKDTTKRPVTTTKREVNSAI

[7] = target: T6, human CD80 (membrane-bound type), on cells (human, UniProt P33681 35-288); test: flow cytometry on cells with membrane-bound human CD80
T6 construct: whole, on cells
T6 sequence (looked up): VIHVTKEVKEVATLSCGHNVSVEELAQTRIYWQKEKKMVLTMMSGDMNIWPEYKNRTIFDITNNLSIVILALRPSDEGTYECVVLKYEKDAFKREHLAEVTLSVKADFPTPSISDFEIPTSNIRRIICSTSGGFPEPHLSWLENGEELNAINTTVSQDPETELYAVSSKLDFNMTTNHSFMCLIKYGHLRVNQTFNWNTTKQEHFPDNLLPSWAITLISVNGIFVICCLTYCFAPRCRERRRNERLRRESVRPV
Source text: FIG. 10. […] C. CHO-K1 parental cells were used as a negative control. Clone #2D10: human CD80 mouse monoclonal antibody (Elabscience, Wuhan). 2nd antibody: PE labeled goat anti-mouse antibody (BD Biosciences)
as §1

[8] = target: T5, human PD-L2 (membrane-bound type), …; test: flow cytometry on cells with membrane-bound human PD-L2; the antibody also bound the CHO-K1 parental cells
[9] = target: T2, native form of secretory sPD-L1-3, in …; test: ELISA with MC38 culture supernatant containing native sPD-L1-3
[10] = target: T3, human PD-L1 (membrane-bound type), …; test: flow cytometry on cells with membrane-bound PD-L1

T1 sequence (Q9NZQ7 132-238): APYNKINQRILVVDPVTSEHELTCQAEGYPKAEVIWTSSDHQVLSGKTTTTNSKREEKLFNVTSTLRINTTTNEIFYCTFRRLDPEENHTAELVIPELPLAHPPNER

B1: PD-L1 mouse monoclonal antibody #19 (antibody, mouse IgG2b, V domains shown)
VH: EVQLQQSGPELVKPGASVKISCKASGSAFSSSWMNWLKQRPGQGLEWIGRIYPGDGDTNYNGKFKGKATLTADKSSSTAYMQLSSLTSVDSAVYFCARRRANHYGSNWYFDVWGAGTTVTVSS
VL: NIVLTQSPASLAVSLGQRATISCRASESVDSYGKSFMHWYQQKPGQPPKLLIYLASNLESGVPARFSGSGSRTDFTLTIDPVEADDAATYYCQQNNEDPYTFGGGTKLEIK
notes: also called mAb #19; Ab #19
[1]
  binding result: binds
[2]
  binding result: no binding (tested: 0.2 µg/well coated antibody)
[3]
  binding result: binds
[4]
  binding result: no binding (tested: 100 ng/100 µl/well)

B2: humanized PD-L1 antibody H6L5 (VH6 + VL5) (antibody, V domains shown)
VH: B1 VH with P9A, L11V, V12K, A16S, I20V, K67R, A68V, T87R, V89E, S91T
VL: NIVLTQSPASLSASVGDRVTISCRASESVDSYGKSFMHWYQQKPGQPPKLLIYLASNLESGVPARFSGSGSRTDFTLTIDSLQPEDFATYYCQQNNEDPYTFGGGTKLEIK
[5]
  binding result: binds
[6]
  binding result: no binding
[7]
  binding result: no binding

B3: humanized PD-L1 antibody H4L4 (VH4 + VL4) (antibody, V domains shown)
VH: EVQLVQSGAEVKKPGSSVKVSCKASGSAFSSSWMNWLRQRPGQGLEWIGRIYPGDGDTNYNGKFKGRVTLTADKSSSTAYMELSSLRSVDTAVYFCARRRANHYGSNWYFDVWGAGTTVTVSS
VL: B2 VL with D80S
[5]
  binding result: binds

B4: humanized PD-L1 antibody H5L4 (VH5 + VL4) (antibody, V domains shown)
VH: B3 VH with S16A, S76I, S85R
VL: B2 VL with D80S
[8]
  binding result: binds

B5: humanized PD-L1 antibody H6L2 (humanized mouse monoclonal antibody #19, VH6 + VL2) (antibody, V domains shown)
VH: B3 VH with V5Q, R38K, E82Q, V89E
VL: B2 VL with A9S, S22T, A64S, D80S
notes: also called humanized antibody H6L2; humanized antibody #19
[9]
  binding result: no binding
[10]
  EC50: 0.62 µg/mL
[6]
  binding result: no binding
[7]
  binding result: no binding
